Measurements from US20130324477.

Molecular target: T1, recombinant filaggrin-2 (FLG2), positions 2 to 213 of Q5D862, fused to a Thioredoxin-His-S.Tag affinity label, Q5D862
T1 chain: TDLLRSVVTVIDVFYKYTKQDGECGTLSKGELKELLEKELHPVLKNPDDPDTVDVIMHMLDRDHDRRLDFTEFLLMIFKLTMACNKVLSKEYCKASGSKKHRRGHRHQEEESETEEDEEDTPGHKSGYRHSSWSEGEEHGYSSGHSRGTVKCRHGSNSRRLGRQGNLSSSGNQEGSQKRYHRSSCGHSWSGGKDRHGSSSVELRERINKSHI

B1: recombinant 28 kDa SASPase (SASPase-28), positions 85 to 343 of Q53RT3 (protein)
chain: MAGSGARSEEGRRQHAFVPEPFDGANVVPNLWLHSFEVINDLNHWDHITKLRFLKESLRGEALGVYNRLSPQDQGDYGTVKEALLKAFGVPGAAPSHLPKEIVFANSMGKGYYLKGKIGKVPVRFLVDSGAQVSVVHPNLWEEVTDGDLDTLQPFENVVKVANGAEMKILGVWDTAVSLGKLKLKAQFLVANASAEEAIIGTDVLQDHNAILDFEHRTCTLKGKKFRLLPVGGSLEDEFDLELIEEDPSSEEGRQELSH
For B1, the “enzymatic activity of SASPase (hydrolysis of Dabcyl-QIDRIMEK-Edans, EDANS fluorescence at 340/490 nm)” value was “the enzymatic activity of SASPase is significantly increased in the presence of an increasing concentration of FLG2-Hs”.
